± gives the standard error.
Test: background-corrected fluorescence of 3'-dye-labeled ssDNA relative to brightest sequence (3'-GCGCG) (fraction); higher = brighter dye fluorescence (less quenching)
Method: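 Single-stranded DNA is synthesized in situ on glass microarrays by 5'->3' photolithographic synthesis, with a Cy3 or Cy5 phosphoramidite coupled at the 3' end next to all 1024 permuted pentamers P1-P5. The construct is 5'-T5-(ACGT minus P5..P1 trinucleotides)-T15-P5P4P3P2P1-dye-3'; the dye is a 3' terminal modification, not part of the sequence. Arrays were scanned at 532 nm (Cy3) or 635 nm (Cy5), background from unlabeled oligos was subtracted, and values are averaged over 10 replicate features per array and at least 3 independent syntheses.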

Sequence	background-corrected fluorescence (dye: Cy3 (3' terminal))	background-corrected fluorescence (dye: Cy5 (3' terminal))
TTTTTTCATGATGCTGATGCTTTTTTTTTTTTTTTGCACA [ACACG]	0.483 ± 0.025	0.375 ± 0.026
TTTTTTGAGCATGCGCATGCTTTTTTTTTTTTTTTCTATA [ATATC]	0.527 ± 0.018	0.411 ± 0.023
TTTTTTCATGATGATGATGATTTTTTTTTTTTTTTGCCCC [CCCCG]	0.32 ± 0.038	0.272 ± 0.012
TTTTTTGATCATCATGCGCATTTTTTTTTTTTTTTCGGAT [TAGGC]	0.593 ± 0.017	0.472 ± 0.033
TTTTTTCATGAGCATCATGATTTTTTTTTTTTTTTGCTGC [CGTCG]	0.509 ± 0.031	0.403 ± 0.029
TTTTTGCATGCGCATGATGCTTTTTTTTTTTTTTTTATCA [ACTAT]	0.478 ± 0.033	0.407 ± 0.053
TTTTTTGCTCATCATGCGCATTTTTTTTTTTTTTTAGGAT	0.637 ± 0.019	0.463 ± 0.028
TTTTTTGCGCATCATGCGCATTTTTTTTTTTTTTTATGAT [TAGTA]	0.615 ± 0.028	0.471 ± 0.03
TTTTTGCAGCATGATGCTCATTTTTTTTTTTTTTTTTCAG [GACTT]	0.506 ± 0.032	0.358 ± 0.027
TTTTTTGATGCTGATGCTCATTTTTTTTTTTTTTTCACAG [GACAC]	0.481 ± 0.031	0.384 ± 0.019
TTTTTTGCGCATCATGCTGATTTTTTTTTTTTTTTATGAC [CAGTA]	0.469 ± 0.0096	0.376 ± 0.02
TTTTTTGCTGATCATCATGCTTTTTTTTTTTTTTTACGGA [AGGCA]	0.683 ± 0.03	0.588 ± 0.029
TTTTTTCATCATGCTGCTGATTTTTTTTTTTTTTTGGAAC [CAAGG]	0.463 ± 0.028	0.352 ± 0.019
TTTTTTGATGAGCATCATGATTTTTTTTTTTTTTTCCTGC [CGTCC]	0.485 ± 0.028	0.394 ± 0.032
TTTTTGCAGCATGATGCTGCTTTTTTTTTTTTTTTTTCAA [AACTT]	0.545 ± 0.04	0.422 ± 0.055
TTTTTGCATGCTCATCATGATTTTTTTTTTTTTTTTAGGC [CGGAT]	0.617 ± 0.027	0.464 ± 0.026
TTTTTTCATGAGCATGCTGCTTTTTTTTTTTTTTTGCTAA [AATCG]	0.534 ± 0.014	0.463 ± 0.032
TTTTTTGCTCATCATGCTGCTTTTTTTTTTTTTTTAGGAA [AAGGA]	0.648 ± 0.0081	0.559 ± 0.021
TTTTTTCATCATGAGCATCATTTTTTTTTTTTTTTGGCTG [GTCGG]	0.469 ± 0.016	0.364 ± 0.018
TTTTTGCATGATGCTGAGCATTTTTTTTTTTTTTTTCACT	0.447 ± 0.036	0.334 ± 0.02
TTTTTTCAGCAGCATGATGATTTTTTTTTTTTTTTGTTCC [CCTTG]	0.351 ± 0.018	0.275 ± 0.015
TTTTTGCAGCATCAGCATGATTTTTTTTTTTTTTTTTGTC [CTGTT]	0.407 ± 0.013	0.345 ± 0.024

Sequence	background-corrected fluorescence (dye: Cy3 (3' terminal))	background-corrected fluorescence (dye: Cy5 (3' terminal))
TTTTTTGCTCATGCTCATCATTTTTTTTTTTTTTTAGAGG [GGAGA]	0.645 ± 0.037	0.525 ± 0.055
TTTTTTGATCATCAGCATGATTTTTTTTTTTTTTTCGGTC [CTGGC]	0.506 ± 0.035	0.407 ± 0.042
TTTTTGCATCATGAGCATCATTTTTTTTTTTTTTTTGCTG [GTCGT]	0.463 ± 0.018	0.358 ± 0.022
TTTTTTGAGCATCATCATCATTTTTTTTTTTTTTTCTGGG [GGGTC]	0.668 ± 0.018	0.563 ± 0.043
TTTTTTGATCATGCTGATGCTTTTTTTTTTTTTTTCGACA [ACAGC]	0.512 ± 0.028	0.429 ± 0.053
TTTTTTCAGCATCATGCTCATTTTTTTTTTTTTTTGTGAG [GAGTG]	0.619 ± 0.028	0.472 ± 0.057
TTTTTTCATCATCATGAGCATTTTTTTTTTTTTTTGGGCT [TCGGG]	0.527 ± 0.017	0.442 ± 0.024
TTTTTGCATGCTGATGATGCTTTTTTTTTTTTTTTTACCA [ACCAT]	0.43 ± 0.017	0.364 ± 0.02
TTTTTGCATGCTGCGCATGATTTTTTTTTTTTTTTTAATC [CTAAT]	0.458 ± 0.036	0.303 ± 0.015
TTTTTTGATGATGCTGCGCATTTTTTTTTTTTTTTCCAAT [TAACC]	0.527 ± 0.017	0.394 ± 0.022
TTTTTTGATCAGCATGCTCATTTTTTTTTTTTTTTCGTAG [GATGC]	0.615 ± 0.024	0.435 ± 0.03
TTTTTTGATGCTGATCAGCATTTTTTTTTTTTTTTCACGT [TGCAC]	0.588 ± 0.034	0.473 ± 0.03
TTTTTTGAGCATGATGCGCATTTTTTTTTTTTTTTCTCAT [TACTC]	0.513 ± 0.018	0.378 ± 0.019
TTTTTTGATGAGCATGCTCATTTTTTTTTTTTTTTCCTAG [GATCC]	0.532 ± 0.019	0.414 ± 0.023
TTTTTTGCTGCTGCTGCTGCTTTTTTTTTTTTTTTAAAAA	0.593 ± 0.0096	0.476 ± 0.026
TTTTTTGCTGATGATGATCATTTTTTTTTTTTTTTACCCG [GCCCA]	0.505 ± 0.03	0.411 ± 0.03
TTTTTTCATGATGCTGATGATTTTTTTTTTTTTTTGCACC [CCACG]	0.391 ± 0.024	0.28 ± 0.022
TTTTTTGCTCATGATCAGCATTTTTTTTTTTTTTTAGCGT [TGCGA]	0.679 ± 0.022	0.52 ± 0.023
TTTTTTGCTGCTGCTGATCATTTTTTTTTTTTTTTAAACG [GCAAA]	0.559 ± 0.023	0.426 ± 0.028
TTTTTGCAGCAGCATCATGATTTTTTTTTTTTTTTTTTGC [CGTTT]	0.495 ± 0.024	0.341 ± 0.032
TTTTTTCAGCATGCGCAGCATTTTTTTTTTTTTTTGTATT [TTATG]	0.5 ± 0.07	0.375 ± 0.03
TTTTTTGATGCTGATGCTGATTTTTTTTTTTTTTTCACAC	0.392 ± 0.006	0.311 ± 0.024

Sequence	background-corrected fluorescence (dye: Cy3 (3' terminal))	background-corrected fluorescence (dye: Cy5 (3' terminal))
TTTTTTGCGCATGCTGCGCATTTTTTTTTTTTTTTATAAT [TAATA]	0.567 ± 0.0072	0.418 ± 0.026
TTTTTTGAGCATCAGCATGCTTTTTTTTTTTTTTTCTGTA [ATGTC]	0.571 ± 0.019	0.429 ± 0.072
TTTTTTCATGAGCATCAGCATTTTTTTTTTTTTTTGCTGT [TGTCG]	0.594 ± 0.011	0.458 ± 0.038
TTTTTTGAGCATGATGATGATTTTTTTTTTTTTTTCTCCC [CCCTC]	0.377 ± 0.029	0.269 ± 0.018
TTTTTTGAGCATGCTGATCATTTTTTTTTTTTTTTCTACG [GCATC]	0.565 ± 0.027	0.416 ± 0.022
TTTTTTCAGCAGCATCATGATTTTTTTTTTTTTTTGTTGC [CGTTG]	0.53 ± 0.024	0.389 ± 0.025
TTTTTTGATGCTGCTGATGATTTTTTTTTTTTTTTCAACC [CCAAC]	0.377 ± 0.027	0.265 ± 0.023
TTTTTTGAGCATGCGCATGATTTTTTTTTTTTTTTCTATC	0.373 ± 0.025	0.309 ± 0.018
TTTTTTGCGCATCAGCATCATTTTTTTTTTTTTTTATGTG [GTGTA]	0.607 ± 0.043	0.452 ± 0.034
TTTTTGCATGCTGAGCAGCATTTTTTTTTTTTTTTTACTT [TTCAT]	0.504 ± 0.046	0.358 ± 0.039
TTTTTTGATGATCAGCATCATTTTTTTTTTTTTTTCCGTG [GTGCC]	0.533 ± 0.0058	0.435 ± 0.029
TTTTTTGCTGATGCGCATGCTTTTTTTTTTTTTTTACATA [ATACA]	0.591 ± 0.025	0.403 ± 0.038
TTTTTTGCGCAGCAGCATCATTTTTTTTTTTTTTTATTTG [GTTTA]	0.5 ± 0.026	0.355 ± 0.025
TTTTTTCATGATGCTGCGCATTTTTTTTTTTTTTTGCAAT [TAACG]	0.53 ± 0.018	0.406 ± 0.027
TTTTTTGATCATGATCAGCATTTTTTTTTTTTTTTCGCGT [TGCGC]	0.783 ± 0.029	0.697 ± 0.048
TTTTTTCATGCTCATGATCATTTTTTTTTTTTTTTGAGCG [GCGAG]	0.654 ± 0.03	0.526 ± 0.059
TTTTTTCAGCATGAGCATGCTTTTTTTTTTTTTTTGTCTA [ATCTG]	0.539 ± 0.01	0.381 ± 0.021
TTTTTGCAGCATGCTGATGATTTTTTTTTTTTTTTTTACC [CCATT]	0.388 ± 0.019	0.286 ± 0.017
TTTTTTGATGATGCGCAGCATTTTTTTTTTTTTTTCCATT [TTACC]	0.541 ± 0.041	0.357 ± 0.02
TTTTTTGCGCATGCTCAGCATTTTTTTTTTTTTTTATAGT [TGATA]	0.587 ± 0.029	0.482 ± 0.041
TTTTTTCATCATGCTGAGCATTTTTTTTTTTTTTTGGACT [TCAGG]	0.508 ± 0.033	0.412 ± 0.04
TTTTTTGCTGAGCATGATCATTTTTTTTTTTTTTTACTCG [GCTCA]	0.571 ± 0.028	0.418 ± 0.03

— the supplement of paper PMC9428881
